Data from US20240076386A1 (Pfizer, published 2024).

T1: human E-selectin extracellular domain with 10 His purification tail (human, UniProt P16581 22-556)
T1 construct: also called soluable human E-selectin extracellular domain; rhE-Selectin
T1 sequence: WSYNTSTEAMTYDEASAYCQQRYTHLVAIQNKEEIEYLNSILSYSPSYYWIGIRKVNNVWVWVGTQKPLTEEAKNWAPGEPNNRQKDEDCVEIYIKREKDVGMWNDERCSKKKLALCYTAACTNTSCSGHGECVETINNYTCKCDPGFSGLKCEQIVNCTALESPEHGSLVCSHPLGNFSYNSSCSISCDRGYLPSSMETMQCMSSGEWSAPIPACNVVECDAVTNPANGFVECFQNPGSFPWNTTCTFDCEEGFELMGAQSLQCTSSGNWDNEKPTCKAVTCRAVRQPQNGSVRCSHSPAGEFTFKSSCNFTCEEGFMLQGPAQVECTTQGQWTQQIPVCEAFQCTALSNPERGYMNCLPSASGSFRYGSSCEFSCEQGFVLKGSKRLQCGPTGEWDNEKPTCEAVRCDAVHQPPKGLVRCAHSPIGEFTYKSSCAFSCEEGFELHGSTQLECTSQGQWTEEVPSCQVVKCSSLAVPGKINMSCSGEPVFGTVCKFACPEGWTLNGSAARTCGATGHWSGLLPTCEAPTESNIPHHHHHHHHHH

T2: mouse E-selectin extracellular domain with 10 His purification tail (mouse, UniProt Q00690 22-557)
T2 construct: also called soluable mouse E-selectin extracellular domain; muE-Selctin
T2 sequence: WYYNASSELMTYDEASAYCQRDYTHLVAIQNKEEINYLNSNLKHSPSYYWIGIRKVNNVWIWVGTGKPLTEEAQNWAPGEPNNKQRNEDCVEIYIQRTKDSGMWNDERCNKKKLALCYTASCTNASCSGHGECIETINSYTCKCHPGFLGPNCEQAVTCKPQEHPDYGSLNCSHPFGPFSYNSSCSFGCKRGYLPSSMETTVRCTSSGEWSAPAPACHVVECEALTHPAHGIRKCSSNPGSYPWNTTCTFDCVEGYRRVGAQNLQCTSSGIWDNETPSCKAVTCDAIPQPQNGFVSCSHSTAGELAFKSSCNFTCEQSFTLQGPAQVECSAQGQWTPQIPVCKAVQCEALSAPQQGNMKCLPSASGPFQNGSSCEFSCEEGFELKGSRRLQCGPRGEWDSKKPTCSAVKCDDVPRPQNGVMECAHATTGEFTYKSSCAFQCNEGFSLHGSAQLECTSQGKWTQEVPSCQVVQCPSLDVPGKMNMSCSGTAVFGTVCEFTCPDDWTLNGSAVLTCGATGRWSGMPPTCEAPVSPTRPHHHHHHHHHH

T3: human E-selectin, cell-surface expressed (human, UniProt P16581 22-610)
T3 construct: also called CHO-human E-selectin cells; human CHO-E
T3 sequence: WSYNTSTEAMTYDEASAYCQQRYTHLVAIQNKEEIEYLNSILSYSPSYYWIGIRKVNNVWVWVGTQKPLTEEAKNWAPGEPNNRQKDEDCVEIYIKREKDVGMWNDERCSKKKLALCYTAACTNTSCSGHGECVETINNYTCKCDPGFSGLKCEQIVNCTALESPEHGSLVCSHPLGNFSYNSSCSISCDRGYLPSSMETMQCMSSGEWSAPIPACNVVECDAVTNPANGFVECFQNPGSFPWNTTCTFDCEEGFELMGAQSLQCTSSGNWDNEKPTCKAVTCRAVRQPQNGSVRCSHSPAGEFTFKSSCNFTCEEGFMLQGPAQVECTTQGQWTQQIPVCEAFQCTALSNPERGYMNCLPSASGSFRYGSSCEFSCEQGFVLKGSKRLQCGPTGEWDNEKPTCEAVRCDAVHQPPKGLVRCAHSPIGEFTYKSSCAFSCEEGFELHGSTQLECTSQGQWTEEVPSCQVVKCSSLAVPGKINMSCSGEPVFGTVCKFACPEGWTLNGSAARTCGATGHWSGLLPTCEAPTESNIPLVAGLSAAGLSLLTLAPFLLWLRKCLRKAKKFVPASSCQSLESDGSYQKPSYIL


Key:
[1] = target: T1, human E-selectin extracellular domain …; assay: antigen binding ELISA, HRP detection
Description: (§1) 384-well Maxisorp plates were used to capture the human and mouse His-tagged recombinant E-selectin polypeptides. The polypeptides were incubated with chimeric antibodies of varying concentrations and detected with HRP-labeled anti-human IgG1 antibodies.

[2] = target: T2, mouse E-selectin extracellular domain …; assay: antigen binding ELISA, HRP detection
Description: as §1

[3] = target: T3, human E-selectin, cell-surface expressed; assay: competition ELISA on CHO cells vs sialyl Lewis A-PAA-biotin/SA-HRP
Description: The ability of anti-E-selectin antibodies to neutralize ligand binding was assessed in a static neutralization assay using a competition enzyme-linked immunosorbent assay (ELISA) to evaluate the neutralization of the sialyl Lewis antigen to Chinese hamster ovary cells (CHO) engineered to express E-selectin.
Briefly, CHO cells expressing human E-selectin were grown in culture medium (MEM (Minimum Essential Medium) Alpha Medium, supplemented with 10% dialyzed fetal bovine serum, 100 nM methotrexate and 100 Units/mL penicillin and 100 μg/mL streptomycin) and were seeded at 12,500 cells per well into a 96 well tissue culture plate and incubated at 37° C., 5% CO₂ for 48 hours to form a confluent monolayer. Plates were subsequently washed twice with 200 μL of calcium magnesium free phosphate buffered saline (PBS). […] Plates were then washed twice with 200 μL of calcium magnesium free PBS. Following the incubation, the cells were washed twice with 200 μL of wash buffer containing 2 mM of calcium chloride (50 mM TRIS [trisaminomethane], 150 mM sodium chloride; 0.05% polysorbate 20, pH 7.4; 2 mM of calcium chloride). Signal was developed by adding 100 μL of 1-Step Ultra TMB substrate (Thermo Scientific, 34028) and incubating for 30 minutes at room temperature. Reactions were stopped using 2 M of sulfuric acid and absorbance read at 450 nm (Spectramax M5e). Data were analyzed and graphed using GraphPad Prism software (Version 8.0.2).

Row | Binder | EC50 [1] [nM] | EC50 [2] [nM] | IC50 [3] [nM]
1 | anti-E-selectin antibody 0159 chimera (antibody, human IgG1, kappa, V domains shown, rat VH/VL on effector-null human IgG1 and human kappa) VH: EVQLQQSGAELGKPGTSVKLSCKVSGYNIRSTYMHWVSQRPGKGLEWIGRIDPANGNTIYAEKFKRKATLTADTSSNTAYMQLSQLKSDDRAIYFCAMEVRVSFEYWGQGVMVTVSS VL: DIQMTQSPSFLSASVGDRVTINCKASQNINKYLDWYQQKLGEGPKLLIYYTNNLHTGIPSRFSGSGSGTDFTLTISSLQPEDVATYFCLQHDSGYTFGAGTKLELKR | 0.02 | > 133 | 3.24
2 | anti-E-selectin antibody 0170 chimera (antibody, human IgG1, kappa, V domains shown, rat VH/VL on effector-null human IgG1 and human kappa) VH: EVQLQQSGAELGKPGTSVKLSCKVSGYSIRSTYMHWVNQRPGKGLEWVGRIDPANGNTIYAERFKNKATLTADTSSNTAYMQLSQLKSDDTAIYFCAVEILGIFDYWGQGVMVTVSS VL: DIQMTQSPSFLSASVGDRVTINCKASQNIDKYLDWYQQKLGEAPKLLMYNTNSLHTGIPSRFSGSGSGTDFTLTISSLQPEDVATYFCLQHNSGYTFGAGTKLELKR | 0.01 | > 133 | 2.3
3 | anti-E-selectin antibody 0180 chimera (antibody, human IgG1, kappa, V domains shown, rat VH/VL on effector-null human IgG1 and human kappa) VH: EVQLQQSGAELGKPGTSVKLSCKVSGYKIRSSYMHWVNQRPGKGLEWIGRIDPANGNTIYGDKFKSKATLTSDTSSNTAYIQLSQLKSDDTAIYFCAIDIGTTFDYWGQGVMVTVSS VL: DIQMTQSPSFLSASVGDRVTINCKASQHINRYLNWYQQKLGEAPKLLIYDANNLQTGIPSRFSGSGSGTDFTLTISSLQPEDVATYFCLQHNSWPNTFGAGTKLELKR | 0.01 | > 133 | 3.83

Second part, the binder after the results:

Row | EC50 [1] [nM] | EC50 [2] [nM] | IC50 [3] [nM] | Binder
4 | 0.02 | > 133 | 3.76 | anti-E-selectin antibody 0039 chimera (antibody, human IgG1, kappa, V domains shown, rat VH/VL on effector-null human IgG1 and human kappa) VH: QVQLKETGPGLVQPTQTLSITCTVSGFSLTGYYMQWVRQTPGKGLEWMGFIRSSGSTEYNSEFKSRLSISRDTSKNQVFLKMNSLKTEDTGVYYCARCPYKYSSFVYVGVMDAWGQGAPVTVSS VL: EIVMTQSPTSMSTSIGERVTLNCKASQTVGINVDWYQQTPGQPPKLLIYGASNRHTGVPDRFTGSGFGRDFTLTISNVEAEDLAVYCCLQYGSIPHTFGPGTKLELKR
5 | 0.02 | > 133 | 2.77 | anti-E-selectin antibody 0164 chimera (antibody, human IgG1, kappa, V domains shown, rat VH/VL on effector-null human IgG1 and human kappa) VH: EVQLQQSGAEFGKPGTSVKLSCKVSGYNIRSSYMHWVNQRPGKGLEWIGRIDPANGNTIYAEKFKIKAILTADSSSNTAYMQLSQLKSDDTAIYFCAMDLYSTSEYWGQGVMVTVSS VL: DIQMTQSPSFLSASVGDRVTINCKTSQNINRYLNWYQQKLGEAPKLLIYNANSLQTGIPSRFSASGSGTDFTLTINSLQPEDVATYFCLQDNSWPLTFGSGTKLEIKR
6 | 0.03 | > 133 | 2.87 | anti-E-selectin antibody 0158 chimera (antibody, human IgG1, kappa, V domains shown, rat VH/VL on effector-null human IgG1 and human kappa) VH: QVQLKESGPGLVQPSETLSLTCTVSGFSISTYNVHWLRQPPGKGLEWMGMMWSGGSPDYNSALKSRLSISRDTSKNQVFLKMNSLQSEDTTTYYCARWGGGFDYWGQGVMVTVSS VL: DIVLTQSPTTLSVTPGETVSLSCRASHSIGTNLHWYQQKTNESPRLLIKFTSQSISGIPSRFSASGSGTDFTLNINNVEFDDVSSYFCQQTQSWPLTFGSGTKLEIKR
